In paper PMC4046141, “Exploring the evolutionary route of the acquisition of betaine aldehyde dehydrogenase activity by plant ALDH10 enzymes: implications for the synthesis of the osmoprotectant glycine betaine” (BMC Plant Biology, 2014):

Tests used:
[1] = substrate: C[N+](C)(C)CC=O; test: purified protein; conditions: 0.2 mM NAD+, 50 mM HEPES-KOH pH 8.0, 0.1 mM EDTA, 30 °C, apparent
[2] = substrate: NCCC=O; test: spectrophotometric initial velocity, fit to substrate-inhibition equation; format: biochemical, Spinacia oleracea; conditions: 0.2 mM NAD+, 50 mM HEPES-KOH pH 8.0, 0.1 mM EDTA, 30 °C, apparent
Source text: spectrophotometric initial velocity, fit to substrate-inhibition equation on SoBADH

[3] = substrate: NC(=O)c1ccc[n+]([C@@H]2O[C@H](COP(=O)(O)OP(=O)(O)OC[C@H]3O[C@@H](n4cnc5c(N)ncnc54)[C@H](O)[C@@H]3O)[C@@H](O)[C@H]2O)c1; test: spectrophotometric initial velocity, Michaelis-Menten fit; format: biochemical, Spinacia oleracea; conditions: fixed BAL at least 10x its Km, 50 mM HEPES-KOH pH 8.0, 0.1 mM EDTA, 30 °C, apparent, varied: cofactor
Source text: spectrophotometric initial velocity, Michaelis-Menten fit on SoBADH

B1: SoBADH (Spinacia oleracea; A441F) (protein)
chain: MAFPIPARQLFIDGEWREPIKKNRIPVINPSTEEIIGDIPAATAEDVEVAVVAARRAFRRNNWSATSGAHRATYLRAIAAKITEKKDHFVKLETIDSGKPFDEAVLDIDDVASCFEYFAGQAEALDGKQKAPVTLPMERFKSHVLRQPLGVVGLISPWNYPLLMATWKIAPALAAGCTAVLKPSELASVTCLEFGEVCNEVGLPPGVLNILTGLGPDAGAPLVSHPDVDKIAFTGSSATGSKVMASAAQLVKPVTLELGGKSPIVVFEDVDIDKVVEWTIFGCFWTNGQICSATSRLLVHESIAAEFVDKLVKWTKNIKISDPFEEGCRLGPVISKGQYDKIMKFISTAKSEGATILYGGSRPEHLKKGYYIEPTIVTDISTSMQIWKEEVFGPVLCVKTFSSEDEAIALANDTEYGLAAAVFSNDLERCERITKALEVGFVWVNCSQPCFVQAPWGGIKRSGFGRELGEWGIQNYLNIKQVTQDISDEPWGWYKSP
notes: native homodimer
- Km [1]: 605 ± 26 µM
- kcat [1]: 0.29 s⁻¹
- kcat/Km [1]: 480 M⁻¹ s⁻¹
- Km [2]: 3.7 ± 0.0 µM
- kcat [2]: 0.34 ± 0.04 s⁻¹
- kcat/Km [2]: 92000 ± 11000 M⁻¹ s⁻¹

B2: SoBADH (Spinacia oleracea; A441V) (protein)
chain: MAFPIPARQLFIDGEWREPIKKNRIPVINPSTEEIIGDIPAATAEDVEVAVVAARRAFRRNNWSATSGAHRATYLRAIAAKITEKKDHFVKLETIDSGKPFDEAVLDIDDVASCFEYFAGQAEALDGKQKAPVTLPMERFKSHVLRQPLGVVGLISPWNYPLLMATWKIAPALAAGCTAVLKPSELASVTCLEFGEVCNEVGLPPGVLNILTGLGPDAGAPLVSHPDVDKIAFTGSSATGSKVMASAAQLVKPVTLELGGKSPIVVFEDVDIDKVVEWTIFGCFWTNGQICSATSRLLVHESIAAEFVDKLVKWTKNIKISDPFEEGCRLGPVISKGQYDKIMKFISTAKSEGATILYGGSRPEHLKKGYYIEPTIVTDISTSMQIWKEEVFGPVLCVKTFSSEDEAIALANDTEYGLAAAVFSNDLERCERITKALEVGVVWVNCSQPCFVQAPWGGIKRSGFGRELGEWGIQNYLNIKQVTQDISDEPWGWYKSP
notes: native homodimer
- Km [1]: 512 ± 79 µM
- kcat [1]: 0.54 s⁻¹
- kcat/Km [1]: 1100 M⁻¹ s⁻¹
- Km [3]: 6.4 ± 0.5 µM
- kcat [3]: 0.51 s⁻¹
- kcat/Km [3]: 80000 ± 5000 M⁻¹ s⁻¹
- Km [2]: 1.1 ± 0.3 µM
- kcat [2]: 0.52 ± 0.1 s⁻¹
- kcat/Km [2]: 473000 ± 216000 M⁻¹ s⁻¹

B3: SoBADH (Spinacia oleracea; A441S) (protein)
chain: MAFPIPARQLFIDGEWREPIKKNRIPVINPSTEEIIGDIPAATAEDVEVAVVAARRAFRRNNWSATSGAHRATYLRAIAAKITEKKDHFVKLETIDSGKPFDEAVLDIDDVASCFEYFAGQAEALDGKQKAPVTLPMERFKSHVLRQPLGVVGLISPWNYPLLMATWKIAPALAAGCTAVLKPSELASVTCLEFGEVCNEVGLPPGVLNILTGLGPDAGAPLVSHPDVDKIAFTGSSATGSKVMASAAQLVKPVTLELGGKSPIVVFEDVDIDKVVEWTIFGCFWTNGQICSATSRLLVHESIAAEFVDKLVKWTKNIKISDPFEEGCRLGPVISKGQYDKIMKFISTAKSEGATILYGGSRPEHLKKGYYIEPTIVTDISTSMQIWKEEVFGPVLCVKTFSSEDEAIALANDTEYGLAAAVFSNDLERCERITKALEVGSVWVNCSQPCFVQAPWGGIKRSGFGRELGEWGIQNYLNIKQVTQDISDEPWGWYKSP
notes: native homodimer
- Km [1]: 119 ± 8 µM
- kcat [1]: 3.29 s⁻¹
- kcat/Km [1]: 28000 M⁻¹ s⁻¹
- Km [3]: 29 ± 3 µM
- kcat [3]: 3.27 ± 0.18 s⁻¹
- kcat/Km [3]: 114000 ± 20000 M⁻¹ s⁻¹
- Km [2]: 2.0 ± 0.5 µM
- kcat [2]: 1.12 s⁻¹
- kcat/Km [2]: 550000 ± 142000 M⁻¹ s⁻¹

B4: SoBADH (Spinacia oleracea) (protein)
chain: MAFPIPARQLFIDGEWREPIKKNRIPVINPSTEEIIGDIPAATAEDVEVAVVAARRAFRRNNWSATSGAHRATYLRAIAAKITEKKDHFVKLETIDSGKPFDEAVLDIDDVASCFEYFAGQAEALDGKQKAPVTLPMERFKSHVLRQPLGVVGLISPWNYPLLMATWKIAPALAAGCTAVLKPSELASVTCLEFGEVCNEVGLPPGVLNILTGLGPDAGAPLVSHPDVDKIAFTGSSATGSKVMASAAQLVKPVTLELGGKSPIVVFEDVDIDKVVEWTIFGCFWTNGQICSATSRLLVHESIAAEFVDKLVKWTKNIKISDPFEEGCRLGPVISKGQYDKIMKFISTAKSEGATILYGGSRPEHLKKGYYIEPTIVTDISTSMQIWKEEVFGPVLCVKTFSSEDEAIALANDTEYGLAAAVFSNDLERCERITKALEVGAVWVNCSQPCFVQAPWGGIKRSGFGRELGEWGIQNYLNIKQVTQDISDEPWGWYKSP
notes: native homodimer
- Km [1]: 98 ± 15 µM
- kcat [1]: 3.36 s⁻¹
- kcat/Km [1]: 35000 M⁻¹ s⁻¹
- Km [3]: 22 ± 2 µM
- kcat [3]: 4.25 ± 0.16 s⁻¹
- kcat/Km [3]: 195000 ± 8000 M⁻¹ s⁻¹
- Km [2]: 3.9 ± 0.1 µM
- kcat [2]: 0.99 ± 0.04 s⁻¹
- kcat/Km [2]: 256000 ± 5000 M⁻¹ s⁻¹

B5: SoBADH (Spinacia oleracea; A441T) (protein)
chain: MAFPIPARQLFIDGEWREPIKKNRIPVINPSTEEIIGDIPAATAEDVEVAVVAARRAFRRNNWSATSGAHRATYLRAIAAKITEKKDHFVKLETIDSGKPFDEAVLDIDDVASCFEYFAGQAEALDGKQKAPVTLPMERFKSHVLRQPLGVVGLISPWNYPLLMATWKIAPALAAGCTAVLKPSELASVTCLEFGEVCNEVGLPPGVLNILTGLGPDAGAPLVSHPDVDKIAFTGSSATGSKVMASAAQLVKPVTLELGGKSPIVVFEDVDIDKVVEWTIFGCFWTNGQICSATSRLLVHESIAAEFVDKLVKWTKNIKISDPFEEGCRLGPVISKGQYDKIMKFISTAKSEGATILYGGSRPEHLKKGYYIEPTIVTDISTSMQIWKEEVFGPVLCVKTFSSEDEAIALANDTEYGLAAAVFSNDLERCERITKALEVGTVWVNCSQPCFVQAPWGGIKRSGFGRELGEWGIQNYLNIKQVTQDISDEPWGWYKSP
notes: native homodimer
- Km [1]: 180 ± 6 µM
- kcat [1]: 2.64 s⁻¹
- kcat/Km [1]: 15000 M⁻¹ s⁻¹
- Km [2]: 4.6 ± 0.5 µM
- kcat [2]: 1.5 ± 0.12 s⁻¹
- kcat/Km [2]: 326000 ± 13000 M⁻¹ s⁻¹
